Source: patent publication US20170119790A1, “Agents, Uses and Methods” (CYTOGUIDE A/S, priority 2009, published 2017)

What was measured:
[1] = test system: LPS mediated TNFα stimulation of rat macrophages / spleen cells; assay: Rat in vitro LPS model; assay type: cell-based; conditions: FIG. 41
Protocol: Rat or mouse peritoneal or spleen cell suspensions were prepared from female Lewis rats (Harlan) or BalB/cA mice (Taconic). Human mononuclear cells were isolated from buffycoats (Skejby University Hospital) as described above. The purified cells were suspended in RPMI medium supplemented with 10% FCS and 2 mM L-glutamine and cultured (2×10^5 per well) overnight in 96-well flat bottomed plates (125 μl per well) at 37° C. and 5% CO2. Glucocorticoid conjugates (Example 8), free glucocorticoids or PBS were serial diluted in supplemented RPMI medium and added (100 μl) to the overnight cell cultures at final concentrations ranging from 1-10^−7 μg glucocorticoid/ml. After incubation for a specific time ranging from 30 min-24 hours, 150 μl supernatant was carefully aspirated and 150 μl supplemented RPMI medium added to the wells before further incubation overnight. Each incubation condition was tested in duplicates or triplicates. After 16-20 hours, the cells were challenged with lipopolysaccharide (LPS) (250 ng/ml) for 4 hours before supernatant was aspirated from each well and frozen at -20° C.

[2] = test system: LPS mediated TNFα stimulation; assay: Rat in vivo LPS model; parameters: species or system Lewis rats; conditions: i.v., challenged with LPS, FIG. 41
[3] = target: T1, CD163 (Homo sapiens, UniProt Q86VB7); assay: scFv ELISA; assay type: binding; conditions: for ELISA signal: PBS, read at 450 nm
T1 sequence (Q86VB7 42-1156): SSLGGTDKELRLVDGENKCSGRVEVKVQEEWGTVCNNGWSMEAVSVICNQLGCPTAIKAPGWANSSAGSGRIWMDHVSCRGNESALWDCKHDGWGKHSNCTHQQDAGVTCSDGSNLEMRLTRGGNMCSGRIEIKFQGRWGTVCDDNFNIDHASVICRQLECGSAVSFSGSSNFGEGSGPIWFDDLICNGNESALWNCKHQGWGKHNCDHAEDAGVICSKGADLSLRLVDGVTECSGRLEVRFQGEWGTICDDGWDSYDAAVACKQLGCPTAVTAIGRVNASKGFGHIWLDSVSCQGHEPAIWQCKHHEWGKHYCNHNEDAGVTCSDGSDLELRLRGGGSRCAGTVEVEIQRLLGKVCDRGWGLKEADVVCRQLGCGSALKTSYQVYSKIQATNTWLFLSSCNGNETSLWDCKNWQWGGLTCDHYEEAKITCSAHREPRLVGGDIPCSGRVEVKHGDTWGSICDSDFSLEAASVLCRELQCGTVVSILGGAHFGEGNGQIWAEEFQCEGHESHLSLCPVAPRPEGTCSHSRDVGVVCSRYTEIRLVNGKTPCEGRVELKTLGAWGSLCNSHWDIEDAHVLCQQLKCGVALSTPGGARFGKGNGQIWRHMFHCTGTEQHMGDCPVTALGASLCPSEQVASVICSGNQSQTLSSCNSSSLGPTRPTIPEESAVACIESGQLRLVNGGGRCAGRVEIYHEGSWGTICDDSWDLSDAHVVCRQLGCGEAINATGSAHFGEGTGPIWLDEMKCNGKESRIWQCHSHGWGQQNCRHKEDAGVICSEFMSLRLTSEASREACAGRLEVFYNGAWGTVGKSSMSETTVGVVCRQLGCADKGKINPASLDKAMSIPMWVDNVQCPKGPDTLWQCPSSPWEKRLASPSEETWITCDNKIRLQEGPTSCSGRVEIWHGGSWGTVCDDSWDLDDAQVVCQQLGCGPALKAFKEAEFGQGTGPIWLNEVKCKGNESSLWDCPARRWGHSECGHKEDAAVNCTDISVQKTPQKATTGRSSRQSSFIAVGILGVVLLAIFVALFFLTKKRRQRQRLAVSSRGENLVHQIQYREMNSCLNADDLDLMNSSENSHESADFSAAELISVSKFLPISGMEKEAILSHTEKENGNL
Protocol: A nunc Maxisorp ELISA plate (NUNC, Roskilde, Denmark) was coated with 50 μl/well of 2 μg/ml of CD163 (purified as described in (2)) over night at 4° C. The coated plate was washed 3 times in PBS and blocked for 1 hour with 3% BSA in PBS. Fractions from scFv purification were tested by adding 100 μl/well of a 1:10 dilution of each sample in 1% BSA, PBS. The refolded protein sample was added directly to the wells (100 μl/well) and two-fold dilution series was made with dilution in 1% BSA in PBS. After 1 hour incubation at 4° C. the plate was washed 3 times in PBS again. Secondary detection was made with a 1 hour incubation of a HRP conjugated anti-His antibody (Sigma-Aldrich, Brøndby, Denmark) (1:4000 diluted in 1% BSA, PBS). After washing 3 times in PBS the ELISA was developed with […] TMB substrate (Invitrogen, Taastrup, Denmark). The reaction was stopped with 40 μl/well of 1 M H2SO4 and the plate was read in an ELISA reader at 450 nm.

[4] = target: T2, CD163 transfected Flp-In CHO cells (Homo sapiens, UniProt Q86VB7); assay: Cellular binding and uptake (endocytosis) of 125I-labeled anti-CD163; assay type: cell-based
T2 construct: Stably transfected Chinese hamster ovary (CHO) cells expressing the full-length human CD163; expressed in transfected cells
T2 sequence (Q86VB7 42-1156): as above
Protocol: Monocytes were isolated from PBMC by negative selection using magnetic beads from Dynal (Dynabeads® MyPure™ Monocyte Kit 2; Invitrogen A/S, Taastrup, Denmark) according to instructions provided by the manufacturer. Monocyte preparations were more than 95% (CD14^+) pure determined by flow cytometry. The isolated cells were washed twice with phosphate-buffered saline. Monocyte-derived macrophages (MDMs) were prepared by cell culture of monocytes (approximately 1×10^7 cells) for 4 days in 5% CO2 and 37° C. in RPMI 1640 media (RPMI 1640+25 mM HEPES+I-glutamine) (Invitrogen Corporation, Carlsbad, Calif., USA) with 20% FCS containing 100 ng/ml of M-CSF. MDMs were then detached from the flask by incubation with cell dissociation buffer (Invitrogen A/S, Taastrup, Denmark) for 30 minutes at 4 °C, then flushed, and scraped. The cells were then cultured for 24 hours in RPMI 1640 media (RPMI 1640+25 mM HEPES+I-glutamine) (Invitrogen Corporation, Carlsbad, Calif., USA) supplemented with 20% FCS containing 100 ng/ml of M-CSF at 37° C. in 95% air and 5% CO2 in Lab-Tek™ Chamber Slides (Thermo Fisher Scientific, Roskilde, Denmark). 200 nM dexamethasone (Merck KGaA, Darmstadt, Germany) was added during culture to increase CD163 expression. Stably transfected Chinese hamster ovary (CHO) cells expressing the full-length human CD163, as described above, were cultured in serum-free CHO medium (HyQ-CCM, HyClone, Logan, Utah) containing 300 μg/ml Hygromycin B, as previously described (2).
Endocytosis of ^125I-labeled anti-CD163 was investigated in CD163 transfected Flp-In Chinese hamster ovary (CHO) cells and mock-transfected Flp-In as described (Madsen, M., Moller, H. J., Nielsen, M. J., Jacobsen, C., Graversen, J. H., van den Berg, T. and Moestrup, S. K. (2004) Molecular characterization of the haptoglobin.hemoglobin receptor CD163. Ligand binding properties of the scavenger receptor cysteine-rich domain region. J. Biol. Chem., 279, 51561-51567.)

[5] = target: T3, CHO cells expressing CD163 (Homo sapiens, UniProt Q86VB7); assay: CD163 antibody binding and uptake in CHO cells expressing CD163 (confocal microscopy); assay type: cell-based; conditions: 0 or 30 minutes, FIG. 7
T3 construct: Stably transfected Chinese hamster ovary (CHO) cells expressing the full-length human CD163; expressed in transfected cells
T3 sequence (Q86VB7 42-1156): as above
Protocol: Monocytes were isolated from PBMC by negative selection using magnetic beads from Dynal (Dynabeads® MyPure™ Monocyte Kit 2; Invitrogen A/S, Taastrup, Denmark) according to instructions provided by the manufacturer. Monocyte preparations were more than 95% (CD14^+) pure determined by flow cytometry. The isolated cells were washed twice with phosphate-buffered saline. Monocyte-derived macrophages (MDMs) were prepared by cell culture of monocytes (approximately 1×10^7 cells) for 4 days in 5% CO2 and 37° C. in RPMI 1640 media (RPMI 1640+25 mM HEPES+I-glutamine) (Invitrogen Corporation, Carlsbad, Calif., USA) with 20% FCS containing 100 ng/ml of M-CSF. MDMs were then detached from the flask by incubation with cell dissociation buffer (Invitrogen A/S, Taastrup, Denmark) for 30 minutes at 4 °C, then flushed, and scraped. […]
MDMs or CHO cells were washed with 4° C. cold D-PBS, pH 7.4, containing 1% BSA in Lab-Tek™ Chamber Slides (Thermo Fisher Scientific, Roskilde, Denmark). […] Fluorescence was visualized using a Zeiss Axiovert 200M microscope (Carl Zeiss GmbH, Jena, Germany) with an ×100 oil-immersion objective. […] Alternatively, immunostained cells were analyzed by confocal immunofluorescence microscopy using a Zeiss LSM-510 confocal microscope (Carl Zeiss GmbH, Jena, Germany). […]

[6] = target: T1, CD163; assay: Surface plasmon resonance (Biacore) analysis of mAb binding to immobilized CD163; conditions: in both 2 mM free Ca2+ and 10 mM EDTA
Protocol: (§1) SPR analysis of the binding of mAbs to CD163 was carried out on a Biacore 2000 instrument (Biacore, Uppsala, Sweden). The Biacore sensor chips (type CM5) were activated with a 1:1 mixture of 0.2 M N-ethyl-N′-(3-dimethylaminopropyl) carbodiimide and 0.05 M N-hydroxysuccimide in water. Purified recombinant CD163 were immobilized in 10 mM sodium acetate, pH 4.0, and the remaining binding sites were blocked with 1 M ethanolamine, pH 8.5. The SPR signal generated from immobilized recombinant CD163 proteins corresponded to 40-70 fmol of protein/mm^2. Sensorgrams were generated using mAb concentrations ranging from 5-100 nM. The flow cells were regenerated with 1.6 M glycine-HCl, pH 3. The running buffer used for the experiment was either CaHBS 10 mM Hepes, 150 mM NaCl, 3.0 mM CaCl2, 1.0 mM EGTA, and 0.005% Tween 20, […], and 0.005% Tween 20, pH 7.4, mAb samples were dissolved in the same buffer as the running buffer used. All binding data were analyzed using the Biamolecular Interaction Analysis evaluation program version 3.1.
as §1, with “7.4, KN2/NRY and Mac-158” for “7.4, mAb”, “buffer used at a concentration of 5 μg/ml.” for “buffer used.”

[7] = target: T1, CD163; assay: Competition of binding to Mac2-158 epitope (SPR on Mac2-158 saturated CD163 chip); conditions: 2 mM free calcium buffer, mAb 5 μg/ml
Protocol: To evaluate if there is competition in the binding of a range of mAbs to CD163 we first saturated the CD163-chip with Mac2-158 by injecting 50 μL of 50 μg/ml Mac2-158 and subsequently injecting relevant mAbs in 5 μg/ml. The binding buffer was CaHBS 10 mM Hepes, 150 mM NaCl, 3.0 mM CaCl2, 1.0 mM EGTA, and 0.005% Tween 20, pH 7.4.

In the case of CC1(C)O[C@@H]2C[C@H]3[C@@H]4C[C@H](F)C5=CC(=O)C=C[C@]5(C)[C@@]4(F)[C@@H](O)C[C@]3(C)[C@]2(C(=O)CO)O1 [fluocinolone-acetoniode, Fluocinolone acetonide], the “suppressive in vitro effect compared to prednisolone” value [1] is reported as “significantly higher” and the “TNFα level lower compared to vehicle” value [2] is reported as 5 times.

In the case of C[C@]12C=CC(=O)C=C1CC[C@@H]1[C@@H]2[C@@H](O)C[C@@]2(C)[C@H]1CC[C@]2(O)C(=O)CO [prednisolone], the “TNFα level lower compared to vehicle” value [2] is reported as 5 times.

B1: refolded scFv: scFv (VH-15 residue linker-VL), SEQ ID NO: 56, expressed in E. coli and refolded (protein)
scFv: MDQVQLQESGPGLVKPSETLSLTCTVSGYSITSDYAWNWIRQFPGNKLEWMGYITYSGSTYYNPSLKSRVTISVDTSKNQFSLKLSSVTAADTATYYCVSGTYYFDYWGQGTTLTVSSGGGGSGGGGSGGGGSDIVMTQSPSSLSASVGDRVTITCRASQSVSSDVAWFQQKPGKSPKPLIYYASNRYSGVPSRFSGSGSGTDFTLTISSLQAEDFAVYFCGQDYTSPRTFGGGTKLEIKREQKLISEEDL
modifications: scFv sequence
B1 was tested, and the “dilution down to which binding signals to CD163 were detected” value ([3]; 2 fold dilution series) was 128 fold, the ELISA signal ([3]; 64 fold dilution in 1% BSA) was 0.29 and the ELISA signal ([3]; 128 fold dilution in 1% BSA) was 0.15.

B2: Mac2-48: anti-human CD163 murine mAb, IQ Products; VH SEQ ID NO: 3, VL SEQ ID NO: 4 (antibody, V domains shown)
VH: DVQLQESGPGLVKPSQSLSLTCTVTGYSITSDYAWNWIRQFPGNKLEWMGFISYSGITSYNPSLKSRISITRDTSKNQFFLQLNSVTTEDSATYYCVSGTYYFDYWGQGTTLTVSS
VL: SIVMTQTPKFLLVSAGDRVTITCKASQSVSHDVSWFQQKPGQSPKLLIYYTSNRYTGVPDRFTGSGYGTDFTFTISTVQAEDLAIYFCQQDYSSPRTFGGGTKLEIKRA
modifications: Mac2-48 VH; Mac2-48 VL
With B2 the “time course of cell-associated radioactivity (bound or internalized)” value ([4]; 125I-labelled mAb, increasing time points) was “did not reach a plateau”, the “cellular uptake and binding to CD163-expressing cells” value ([4]; compared with the other tested antibodies, FIG. 5) was “considerably higher” and the binding and uptake [5] was “best binding and uptake”. For the same molecule, the “affinities for CD163” value [6] was “nanomolar or sub-nanomolar range” and the “binding to CD163-Fc saturated with Mac2-158” value [7] was “not able to bind”.
